Results: patent US20220280636A1

Key:
[1] = target: mouse whole molecule IgG (mouse); test: SPR; IgG amine coupled to CM5 chip, construct flowed at 750 ug/ml; end-point RU of association phase
human IgG Fc (human) [2] = test: as above
[3] = target: rabbit whole molecule IgG (rabbit); test: as above
[4] = target: human whole molecule IgG (human); test: as above
[5] = target: guinea pig whole molecule IgG (guinea pig); test: as above
human IgG Fc (human) [6] = test: SPR; IgG amine-coupled to CM5 chip, construct flowed at 750 ug/ml; end-point RU of association phase
[7] = target: rabbit whole molecule IgG (rabbit); test: as above
[8] = target: human whole molecule IgG (human); test: as above
human IgG Fc (human) [9] = test: as above; remark: listed apart in the source
[10] = target: rabbit whole molecule IgG (rabbit); test: as above; remark: listed apart in the source
[11] = target: human whole molecule IgG (human); test: as above; remark: listed apart in the source

Substance | RU Post Association [1] | RU Post Association (human IgG Fc (human) [2]) | RU Post Association [3] | RU Post Association [4] | RU Post Association [5] | RU Post Association (human IgG Fc (human) [6]) | RU Post Association [7] | RU Post Association [8] | RU Post Association (human IgG Fc (human) [9]) | RU Post Association [10] | RU Post Association [11]
gE-2t 414/gI-2t 262 (from UniProt P89475 21-411; P06764 21-262) | 5 RU | 53 RU | 75 RU | 79 RU | 4 RU | – | – | – | – | – | –
gE-2t 405 (from UniProt P89475 21-402) | 4 RU | 5 RU | 6 RU | 8 RU | 5 RU | – | – | – | – | – | –
gE-2t 24-405 (from UniProt P89475 23-402) | 4 RU | 8 RU | 6 RU | 7 RU | 5 RU | – | – | – | – | – | –
gE-2t 417/gI-2t 262 (from UniProt P89475 21-414; P06764 21-262) | 10 RU | 41 RU | 46 RU | 52 RU | 9 RU | 98 RU | 138 RU | 133 RU | 43 RU | 45 RU | 53 RU
gD-2t 339 (from UniProt Q69467 26-339) | 4 RU | 4 RU | 11 RU | 2 RU | 2 RU | 2 RU | 1 RU | 4 RU | 1 RU | 2 RU | 3 RU
gE-1t 419/gI-1t 269 (from UniProt P04488 21-419; P06487 21-276) | 11 RU | 216 RU | 195 RU | 232 RU | 19 RU | – | – | – | – | – | –
gE-2t 405/gI-2t 262 (from UniProt P89475 21-402; P06764 21-262) | 8 RU | 100 RU | 165 RU | 142 RU | 9 RU | – | – | – | – | – | –
gE-2t 24-405/gI-2t 262 (from UniProt P89475 23-402; P06764 21-262) | 6 RU | 95 RU | 142 RU | 136 RU | 8 RU | – | – | – | – | – | –
